The labels stand for the following.
B1: TPR 5TU (parent)
chain: GGAUCUUCUCGAUCUAACAAAAAAGACAAAUCUGCCACAAAGCUUGAGAGCAUCUUCGGAUGCAGAGGCGGCAGCCUUCGGUGGCGCGAUAGCGCCAACGUUCUCAACUAUGACACGCAAAACGCGUGCUCCGUUGAAUGGAGUUUAUCAUG

Fewer inactive variants are shown than the library holds.

The variants in this series derive from B1. In words: polymerase ribozyme fitness, log enrichment relative to wild type (log ratio); higher = more active; in vitro selection for triplet polymerase activity. An outline of the steps: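 Fitness measures genotype enrichment against wild-type enrichment on a logarithmic scale, with inverse-variance-weighted averaging of replicates. The logarithm is base 2, and genotypes were kept only with ≥10 input reads and ≥1 read per output in Illumina sequencing. The sequenced libraries came from one triplicate in vitro selection round, including frozen incubation at −7 °C, of PCR-built, transcribed mutant libraries of each subunit of a heterodimeric triplet polymerase ribozyme.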
Consider GGAUCUUCUCGAUCUAACAAAAAAGACAAAUCUGCCACAUAGCUUGAGAGCAUCUUCGGAUGCAGAGGCGGCAGCCUUCGGUGGCGCGAUAGCGCCAACGUUCUCAACUAUGACAAGCAAAACGCGUGCUCCGUUGAAUGGAGUUUAUCAUG [A40U C116A], for which the “polymerase ribozyme fitness (log ratio)” value is 0.309. Then GGAUCUUCGCGAUCUAACAAAAAAGAGAAAGCUGCCACAAAGCUUGAGAGCAUCUUCGGAGGCAGAGGCGGCAGGCUUCGGUGGCGCGAUAGCACCAACGUUCUUAACUAUGACACGCAAAACGCGUGCUCCGUUGAAUGGAGUUUAUCAUG [U9G C27G U31G U61G C75G G94A C105U], with ≤ -4.2; and GGAUCUUCUCGAUCUAACAAAAAAGACAAAUCUGCCACAAAGCUUGAGAGCAUCUUCGGAUGCAGAGGCGGCAGCCUUCGGUGGCGCGUUUGCGCCAACGUUCUCAACUAUGACAUGCAAAACGCGUGCUCCGUUGAAUGGAGUUUAUCAUG [A89U A91U C116U], with ≤ -4.2.

For the variant GGAUCUUCUCGAUCUAACAAAAAAGACAAAUCUGACACAAAGCUUGCGAGCAUCUUCGGAUGCAGAGGCGGCAGCCUUCGGUGGCUCGAUAGCGCCAACGUUCUCAACUAUGACACGCAAAACGCGUGCUCCGUUGAAUGGAGUUUAUCAUG [C35A A47C G86U], the “polymerase ribozyme fitness (log ratio)” value was ≤ -4.2. Then GGAUCUUCUCGAUCUAACAAAAAUGACAAAUCUGCCACAAAGCUUGAGAGCUUCUUCGGAUGCAGAGGCGGCAGCCUUCGGUGGUGCGAUAGCGCCAACGUUCUCAACUAUGACACGCAAAACGCGUGCUCCGUUGAAUGGAGUUUAUCAUG [A24U A52U C85U], with -1.43; and GGAUCUUCUCGAUCUAACAAAAAAGACAAAUCUGCCACAAAGCUUGAGAUCGUCUUCGGAUGCAGAGGCGGCAGCCUUCGGUGGCGCGAUAGCGCCAACGUUCUCAACUAUGACACGCAAAACGCGUGCUCCGUUGAAUGGAGUUUAUCAUG [G50U A52G], with -0.0259; and GGAUCUUCUCGAUCUAACAAAAAAGACAAAUCUGCCACAAAGCUUGAGAGCAUCUUCGGAUGCAGAGGCGGCAGCCUUCGGUGACGCGAUAGCGCCGACGUUCUCAACUAUGACACGCAAAACGCGUGAUCCGUUGAAUGGAGUUUAUCAUA [G84A A97G C129A G152A], with -4. With GGAUCUUCUCGAUCUAACAAAAAACACAAAUCUGCCACAAAGCUUGAGAGCAUCUUCGGAAGCAGAGGCGGCAGCCUUCGGUGGCGGGAUAGCGCCAACGUUCUCAACUAUGACACGCAAAACGCGUGCUCCGUUGAGUGGAGUUUAUCAUG [G25C U61A C87G A138G], the “polymerase ribozyme fitness (log ratio)” value was ≤ -4.2. As for GGAUCUUCUCGAUCUAACAAAAAAUACAAAUCUGUCACAAAGCUUGAGUGCAUCUUCGGAUGCAGAGACGGCAGCCUUCGAUGGCGCGAUAGCGCCAACGUUCUCAACGAUGACACGUAAAACGCCUGCUCCGUUGAAUGGAGUUUAUCAUG [G25U C35U A49U G68A G81A U109G C118U G126C], the “polymerase ribozyme fitness (log ratio)” value was ≤ -4.2. The value for GGAUCUUCUCGAUCUAACAAAAAAGACAAAUCUGCCACAAAGCUUGAGAGCAUUUUCGGAUGCAGAGGCGGCAGCCUUCGGUGGUGCGAUAGCGCCAACGUUCUCAACUAUGACACGCAAAACGCGUGUUCCGUUGAAUGGAGUUUAUCAUG [C54U C85U C129U] was -0.134; that for GGAUCUUCUCGAUCUAACAAAAAAGACAAAUCUGCCACAAAGCUUGCGAGCAUCUUCGGAUGCAGAGGCGGCAGCCUUCGGUGGGGCGAUAGCGCCAACGUUCUCAACUAUGACACGCAAAACGCGUGCUCCGGUGAAUGGAGUUUAUCAUG [A47C C85G U134G] was -4.19; that for GGAUCUUCUCGAUCUAACAAAAAAGACAAAUCUGCCACAAAGCUUGAGAGCAUCUUCGGAUGCAGAGGCGGCAGCCUUCGGUGGGGCGAUAUCGCCAACGUUCUCAACUAUGACACGCAAAACGCGUGCUCCGUUAAAUGAAGUUUAUCAUG [C85G G92U G136A G141A] was -3.06. Then GGAUCUUCUUGAUCUAACAAAAAAGACAAAUCUGCCACAAAGCUUGAGAGCAUCUUCGGAUGCAGAGGCGGCAGCCUUCGGUGGCGCGAUAGCGCCAACGUUCUCAACUAUGACACGUAAAACGCGUGCUCCGUUGAAUGGAGUUUAUCAUG [C10U C118U], with -2.81; and GGAUCUUUUCGAUCUAACAAAAAAGACAAAUCUGCCACAAAGCUUGAGAGCAUCUUCGCAUGCAGAGGCGGCAGCCUUCGGUGGCGCGAUAGCGCCAACGUUCUCAACUAUGACACGCAAAACGCGUGCUCCGUUGAAUGGAGUUUAUCAUG [C8U G59C], with -2.99; and GGAUCUUCUCGAUCUAACAAAAAAGACAAAUCUGCCAUAAAGCUUGAGAGCAGCUUCGGAUGCAGAGGCGGCAGCCUUCGGUGGCGCGAUAGCGCGAACGUUCUCAACUAUGACACGCAAAACGCGUGCUCCGUUGAAUGGAGUUUAUCAUG [C38U U53G C96G], with -1.73.

With GGAUCUUCUCGAUCUAACAAAAAAGACAAAUCUGCCACAAAGCUUGAGGGCAUCUUCGGAUGCAGAGGCGGCAGCCUUCGGUGGCGCGAUAGCGCCGACGUUCUCAACUAUGACACGCAAAACGCGUGCUCCGUUGAAUGGAGUUUAUCAUG [A49G A97G], the “polymerase ribozyme fitness (log ratio)” value is -1.11. Take GGAUCUUCUCGAUCUAACGAAAAAGACGAAUCUGCCACAAAGCUUGAGAGCAUCUUCGGGUGCAGAGGCGGCAGCCUUCGGUGGCCCGAUAGCGCCAACGUUCUCAGCUAUGACACGUAAAACGCGUGCUCCGUUGAAUGUAGUUUAUCAUG [A19G A28G A60G G86C A107G C118U G141U]: the “polymerase ribozyme fitness (log ratio)” value was ≤ -4.2. Then GGAUCUUCUCGAUCUAACAAAAAAGACAAAUCUGCCACAAAGCUUGAGAGCAUCUUCGGAUGCAGAGGCGGCAGCCUUCGGUCUCGUGAUAGCGCCAACGUGCUCAUCUAUGACACGCAAAACGCGUGCUCCGUUGAAUGGAGUUUAUCAUG [G83C G84U C87U U102G A107U], with ≤ -4.2. The value for GGAUCGUCUCGAUCUAACAAAAAAGACAAAUCUGCCACAAAGCUUGAGAGCACCUUCGGAUGCAGAGGCGGCAGCCUUCGGUGGCGCGAUACCGCCAACGUUCUCAACUAUGACACGCAAAACGCGUGCUCCGUUGAAUGGAGCUUAUCAUG [U6G U53C G92C U144C] was -1.5.

Source of the values: the RNAGym collection of RNA variant scans (doi:10.1073/pnas.2313332121).
